Measured values from the supplement of paper PMC9170038.

System: K4 kissing-loop RNA reporter
Assay: apparent KD of K4 kissing-loop reporter; higher = weaker reporter binding
Details: Eterna round: R107
Description: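 RNA-MaP round R107: designed RNA switches with theophylline, tryptophan, arginine or FMN aptamers are transcribed on-chip within common flanks. They are titrated with a labelled K4 kissing-loop RNA reporter in RNA-MaP buffer (100 mM Tris pH 7.5, 80 mM KCl, 4 mM MgCl2), without ligand or with the indicated ligand. Median apparent KD per design.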

[1] = input ligand: theophylline 20 uM
[2] = input ligand: tryptophan 2.4 mM
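Also: bound reporter read as fluorescence of individual clusters on recovered sequencing chips by microscopy, with normalized cluster intensities fitted with a binding model.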

Row | Sequence | apparent KD of K4 kissing-loop reporter (input ligand: FMN 200 uM) [nM] | apparent KD of K4 kissing-loop reporter (input ligand: arginine 13.2 mM) [nM] | apparent KD of K4 kissing-loop reporter (input ligand: none) [nM] | apparent KD of K4 kissing-loop reporter [1] [nM] | apparent KD of K4 kissing-loop reporter [2] [nM]
1 | AGGGAUGUUAAAGGAUAUAGAAAGUGAUGUUAGAAAGUGAGUGAUGUUGAUGUAAGUGAUGUUAUGUUAGAAGGUUAACAAAACG [ab] | 229 | 120 | 200 | 215 | 170
2 | AAGCAUUCUUCGGAAUGCAGACCCGCUGAGGAGGAUAUGACGAAAGUCAGAAGGCCUCAGUGAUGUUGAGGCCUCCUCAAUGGUC [Omei KL FMN A Exc A v1] | 138 | 135 | 187 | 173 | 171
3 | UUUUAAAUGUCUGAUACCAGAGAAAAUAUAUGUAGUGAUGUUAUAUACAAAUUGAAUAAGCUCCCUUGGCAGCAGUAUUAAUUUU [AstrosExc-TheB#11] | 493 | 643 | 713 | 662 | 493
4 | CUCUAACUGAGAAGGAGCGCGAUAUAAACACUCGCACAGUGAUGUUGUGUGUCAAGGGUAUCGCAGGUAGGUCGCUCAGAUACCU [Arg B SS t15] | 294 | 247 | 255 | 273 | 248
5 | AUAGGAGUGAUGUUCCUUAGUUUCUCCGAUACCAGUAUGGAAACAUACCCUUGGCAGCGGGAAACCGCUGAUUAGGAAACUAGUC [Theophylline A K4 7] | 256 | 271 | 282 | 242 | 223
6 | CCUAUCUCAUACGAUACCAGUGAAUAACCAGUGAUGUUGGAAUAACCAAGGAAUAUUUUACACCCUUGGCAGCGUAUGGGAUAGG [Ex Theophylline B K4 25] | 274 | 239 | 305 | 270 | 269
7 | AAUUGGGACGAAGGAUAUUGUCGGCCAUGUACGAGGUCCGGAUGUCAUGACUGUUAGUGAUGUUAACAAGAAGGUCGAGGGAGAC [theeternabot_exclusion_KL_FMN_B_25] | 87 | 107 | 103 | 119 | 86.3
8 | AGGGAUGAUGGAUAAAUAAACAAAAGGGAUACCAGUCAAAUAAUAGGCCCUUGGCAGCUUUAGAUCAGUGAUGUUGAAGAUAUUG [Theophylline A Same State; Euphoria Solution] | 84.1 | 127 | 93 | 159 | 78.5
9 | GCCGUACGCAUGGAUACCAGUUGCGAAGUGAUGUUUCGGGCGAUCAAAGGAUCGCCCUACAACCCUUGGCAGCCAUGCGUACGGC | 158 | 67.3 | 122 | 204 | 120
10 | UAUAUACAUUUAUUAAUUAAAGGUUCAGAAGGAGCGUGAAUUAACACAGGUAGGUCGCUGAGCGAGUGAUGUUCGCUAUAUGGAA [JR_ExcArginiA_Sub006] | 54.1 | 69.3 | 57 | 81 | 50.4
11 | AAAUGCUUGUAUUUGAACAAUUCCUUUAGGGAGGAUAUUGGUAAUACAAGAAGGCCCUGAUGGGAGUGAUGUUCCCAUAACGCGG [Exclusion FMN A GF16] | 114 | 95 | 90.8 | 90.2 | 91.1
12 | GGUAGCAUGGCGGCCGCCACUAACAACCUCACCUGCGGCUCGAUCGAGUGAUGUUCGAACGCAAUUAGGACCGGGCCAUGCUACC | 243 | 64.8 | 141 | 143 | 122
13 | UGUCAUUGGUCGGCCGCCACUUCGUGUGGAGUGAUGUUUUGUAGGUUGUGUUGAAAGGUAUGGUGAAGGACCGGGACCGAUGACU [FiskerMod 20 - Jieux - Same State - Tryptophan B] | 651 | 384 | 496 | 1080 | 525
14 | GCUAGUUUGGAAGGAUAUUCGUGCGAUCAAGUCAAACUUUACUGAGGGCGUUUUGGAGUGAUGUUCGAAGAAGGUCCCUUACUUA [theeternabot_exclusion_KL_FMN_B_28] | 1400 | 816 | 999 | 664 | 758
15 | AAGUUGAACUGAAGGAGCGAGAAAUAGAAUGUAAGAAUAUAUGCUAGUGAUGUUAGAAAUUCUCAGGUAGGUCGCAGUAAGUUUU [V2] | 363 | 418 | 474 | 407 | 285
16 | AAUGUAUGGCACAUGAGUGAUGUUCAUGUCCGAGGACCGGUACGGCCGCCACUCGGUCCUGGGUUCUUAUUACUAUACAUUAAUG [KL-XTryp-A2 #analogue] | 161 | 133 | 149 | 169 | 289
17 | UGAUAAAGCAGUGAUGUUGCAAGUAAUGAUACCAGUUAAGAAGAGAACCCUUGGCAGCAUAAAGUGCGCUCUGAUGAGUGUGCUU [whbob_SS_Theo_A_w52] | 96.7 | 130 | 111 | 152 | 95.6
